Target: GST-SIRT6 K33R (human, UniProt Q8N6T7 1-355, K33R)
Experiment: pull-down

Chain of GST-SIRT6 K33R (Q8N6T7 whole entry K33R): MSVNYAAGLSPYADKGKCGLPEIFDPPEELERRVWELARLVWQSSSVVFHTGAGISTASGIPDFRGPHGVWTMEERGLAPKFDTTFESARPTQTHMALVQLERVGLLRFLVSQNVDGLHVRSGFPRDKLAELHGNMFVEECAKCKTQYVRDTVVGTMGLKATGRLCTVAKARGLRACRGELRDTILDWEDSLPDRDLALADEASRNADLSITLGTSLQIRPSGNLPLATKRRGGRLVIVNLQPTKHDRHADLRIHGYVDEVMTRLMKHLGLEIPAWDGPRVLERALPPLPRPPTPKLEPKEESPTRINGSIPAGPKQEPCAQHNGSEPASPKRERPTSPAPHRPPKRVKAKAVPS

B1: biotin-labeled C-terminal γH2AX peptide (peptide)
peptide: GKKATQASQEY
B1: binds.

From paper doi:10.1101/2020.02.01.930172 (bioRxiv, 2020)
